The data set deals with T1, ParB (Mycobacterium tuberculosis H37Rv) (UniProt P9WIJ9).
T1 sequence: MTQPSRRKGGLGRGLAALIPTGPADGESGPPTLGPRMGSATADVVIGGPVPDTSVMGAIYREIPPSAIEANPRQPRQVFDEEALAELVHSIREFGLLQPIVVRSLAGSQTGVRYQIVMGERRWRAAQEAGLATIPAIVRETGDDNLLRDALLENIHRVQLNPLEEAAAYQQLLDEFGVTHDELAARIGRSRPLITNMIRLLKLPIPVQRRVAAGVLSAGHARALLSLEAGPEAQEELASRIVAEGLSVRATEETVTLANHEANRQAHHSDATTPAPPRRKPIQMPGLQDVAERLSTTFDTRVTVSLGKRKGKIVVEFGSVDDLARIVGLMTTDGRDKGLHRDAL
The data set can be described thus: EMSA. Background: A gel shift assay detects complexes by their altered migration in electrophoresis.

Take “GCGAGTGGAGGGACGGCGTGAGTGCTCCGTGGGGCCCGGTGGCCGCTGGACCGTCCGCGCTCGTAAGGTCGGGCCAGGCTTCAACTATCGAACCATTCCAGCGGGAAATGACACCACCGACACCGACGCCTGAGGCCGCGCACAATCCGACGATGAATGTTTCACGTGAAACATCGACAGAATTCGACACCCCCATCGGCGCTGCAGCAGAACGTGCGATGCG (double strand) [parS probe]”: the binding result is “binds”.
